Measurements: paper PMC9867944 (Bioscience Reports, 2023)

B1: anti-PD-1 Nb C12, displayed on phage (VHH)
VHH: QVQLQELGETRCRHGGSLRLSCKVSGYTQRSYCLGWLRQAPGNEREAVAVLQHSGNFRHYADSVQGRFVISQDYTDNTVYLAMNNLKSEDAAMYYCAAVGLRVSQFNYWGQGTQVTVSS
notes: VHH C12 selected from a naive Bactrian camel phage display library; same VHH as in m1; Detected with anti-M13/HRP; also called C12 Nb; source: E. coli TG1, phage in the supernatant of the colonies
B2: anti-PD-1 Nb C11, displayed on phage (VHH)
VHH: QVQLQESGGAWCEPGGSLTLPCAVSGFAVDRDAVSWVRKAPGQGLQWVSTTTPDGTNYYGALAKDRFTVTRDTTRNTLQLQLTKLRIEDTAKYHCVQDYCSTGRCSLRTQGTQVTVSS
notes: VHH C11 selected from a naive Bactrian camel phage display library; Detected with anti-M13/HRP; C11 was never made as an Fc fusion (ligation to pCZN1 failed); also called C11 Nb; source: E. coli TG1, phage in the supernatant of the colonies
B3: mouse PD-1 protein (receptor, UniProt Q02242 25-288, looked up)
chain: LEVPNGPWRSLTFYPAWLTVSEGANATFTCSLSNWSEDLMLNWNRLSPSNQTEKQAAFCNGLSQPVQDARFQIIQLPNRHDFHMNILDTRRNDSGIYLCGAISLHPKAKIEESPGAELVVTERILETSTRYPSPSPKPEGRFQGM
notes: programmed death protein 1 (PD-1), mouse, protein coated on plates; also called mouse PD-1 antigen

Assays:
[1] = target: T1, human PD-1 protein (Acro biosystems) (Homo sapiens (Human)., UniProt Q15116); experiment: ELISA; Phage-ELISA; wells coated with human PD-1 protein; supernatant of the colonies added for 1 h; anti-M13/HRP (1:5000); positive if absorbance more than two times the negative control (PBS); details: one partner purified
T1 construct: programmed death protein 1 (PD-1), human, recombinant protein; probably the extracellular domain; also called human PD-1 antigen; hPD-1; source: bought: Acro biosystems

anti-PD-1 Nb C12-Fc = target: T2, anti-PD-1 Nb C12-Fc (Bactrian camel); experiment: ELISA; plates coated with human PD-1 or mouse PD-1 protein at 2 ug/ml overnight; serial diluted anti-PD-1 Nb-Fc added, 37 C, 1 h; HRP-conjugated antihuman IgG; details: both partners purified
T2 construct: VHH C12 selected from a naive Bactrian camel phage display library; Nb C12 fused to the human IgG1 Fc fragment in plasmid pCZN1; about 40 kDa on SDS-PAGE; also called anti-PD-1 Nb-Fc; PD-1 C12 Nb-Fc

T1 sequence (Q15116 25-170): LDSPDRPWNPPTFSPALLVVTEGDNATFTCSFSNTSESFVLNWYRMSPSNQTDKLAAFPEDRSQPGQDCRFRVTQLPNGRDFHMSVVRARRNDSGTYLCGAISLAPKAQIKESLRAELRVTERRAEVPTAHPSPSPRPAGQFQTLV

Binder	binding result [1]	binding result (anti-PD-1 Nb C12-Fc)
B1	binds	–
B2	binds	–
B3	–	no binding
